# Laboratory results as given in patent publication US20110206625A1.
# Biological target: recombinant human BMP6 (human) (UniProt P22004)
# Experiment: cell-based or functional assay
# Sequence of UniProt P22004 (P22004 382-513 limits assumed): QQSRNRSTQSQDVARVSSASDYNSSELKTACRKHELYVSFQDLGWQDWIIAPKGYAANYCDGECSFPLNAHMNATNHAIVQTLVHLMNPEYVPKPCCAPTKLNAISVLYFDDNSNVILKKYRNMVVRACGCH
substance,measurement,value
recombinant human Sclerostin (from UniProt Q9BQB4 24-213),BMP6-induced melanin content in human epidermal melanocytes (72 h),15%
